Among the data in paper PMC8919193 are Kd values, retold here.

Experiment [1] addresses Alexa Fluor 488-labeled H2BK120ub nucleosome, H2A(L65C), H3K79Nle (UniProt P0CG47). As to the kind of experiment: other fluorescence titration.
The target of experiment [2] is unmodified and H2BK120ub nucleosomes. Nature of the experiment: FRET or BRET.
Experiment [3] deals with unmodified nucleosome, H3K79Nle, Alexa Fluor 488 on H2A(L65C) (human) (UniProt P62807). Nature of the experiment: FRET or BRET.

In general, Kd refers to a measure of binding affinity in units of concentration. A high value points to lower affinity.

In the case of “DOT1Lcat (human DOT1L residues 1–416) (from UniProt Q8TEK3 1-416) (domain or fragment)”, the Kd in experiment [1] stood at 120 nM. This counts as sub-micromolar.

In experiment [2], “Atto647N-labeled DOT1Lcat(C45A, C75A, C179A, N324C) (from UniProt Q8TEK3 1-416) (domain or fragment)” returned an equilibrium dissociation constant (Kd) of 32 to 36 nM.

As to “DOT1Lcat(F326A, C45A, C75A, C179A, N324C), Atto647N-labeled (from UniProt Q8TEK3 1-416) (domain or fragment)”, the Kd in experiment [3] worked out at 38 nM. In other words, the double-digit nanomolar range.
